According to patent US20240270821A1, “GIP/GLP1/GCG TRI-RECEPTOR AGONISTS AND USES THEREOF” (priority 2023, published 2024):
Positions count from the first letter of the chain named.

T1: human GIP receptor (human) (UniProt P48546)
T1 sequence (looked up): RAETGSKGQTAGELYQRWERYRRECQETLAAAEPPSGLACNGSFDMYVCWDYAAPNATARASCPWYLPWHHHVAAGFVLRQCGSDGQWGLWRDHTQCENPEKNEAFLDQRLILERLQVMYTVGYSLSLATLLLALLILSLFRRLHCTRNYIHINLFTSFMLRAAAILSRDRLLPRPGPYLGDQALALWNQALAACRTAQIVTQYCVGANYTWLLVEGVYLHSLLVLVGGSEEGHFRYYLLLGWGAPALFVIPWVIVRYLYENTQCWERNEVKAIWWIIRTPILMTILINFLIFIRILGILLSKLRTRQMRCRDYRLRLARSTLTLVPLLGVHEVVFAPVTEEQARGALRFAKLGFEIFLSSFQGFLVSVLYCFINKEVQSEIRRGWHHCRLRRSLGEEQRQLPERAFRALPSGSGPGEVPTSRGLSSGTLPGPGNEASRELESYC

B1: Example 178 (peptide)
chain: YXQGTFTSDXSXXLDKKAQXAFIEYLLEXGPSSGAPPPSGS
modifications: Aib, F(4CN), Orn, αMeL; lipidated Lys; C-terminal amide; synthetic construct; SITE 2: note = 2-Aminoisobutyric Acid; SITE 10: note = 4-cyano-L-phenylalanine; SITE 12: note = L-ornithine; SITE 13: note = alpha-methyl-leucine; SITE 17: note = Lysine is chemically modified through conjugation of the epsilon-amino group of the Lysine side chain with (2-[2-(2-
B2: Example 182 (peptide)
chain: B1 chain with X10F, P31H, S41T
modifications: Aib, Orn, alpha-methyl-Leu, lipidated Lys, C-terminal amide; synthetic construct; SITE 2: note = 2-Aminoisobutyric Acid; SITE 12: note = L-ornithine; SITE 13: note = alpha-methyl-leucine; SITE 17: note = Lysine is chemically modified through conjugation of the epsilon-amino group of the Lysine side chain with (2-[2-(2-Amino-ethoxy)-ethoxy]-acetyl)2-(gamma-Glu)
B3: Example 184 (peptide)
chain: B1 chain with X10F, P31X, S41T
modifications: non-natural residues, acylated Lys, C-terminal amide; synthetic construct; SITE 2: note = 2-Aminoisobutyric Acid; SITE 12: note = L-ornithine; SITE 13: note = alpha-methyl-leucine; SITE 17: note = Lysine is chemically modified through conjugation of the epsilon-amino group of the Lysine side chain with (2-[2-(2-Amino-ethoxy)-ethoxy]-acetyl)2-(gamma-Glu)
B4: Example 210 (peptide)
chain: B1 chain with X10F, X29A, S41T
modifications: non-natural residues, lysine acylation, C-terminal amide; synthetic construct; SITE 2: note = 2-Aminoisobutyric Acid; SITE 12: note = L-ornithine; SITE 13: note = alpha-methyl-leucine; SITE 17: note = Lysine is chemically modified through conjugation of the epsilon-amino group of the Lysine side chain with (2-[2-(2-Amino-ethoxy)-ethoxy]-acetyl)-(gamma-Glu)
B5: Example 194 (peptide)
chain: B1 chain with X10F, S39E
modifications: Aib, Orn, αMeL; acylated lysine; C-terminal amide; synthetic construct; SITE 2: note = 2-Aminoisobutyric Acid; SITE 12: note = L-ornithine; SITE 13: note = alpha-methyl-leucine; SITE 17: note = Lysine is chemically modified through conjugation of the epsilon-amino group of the Lysine side chain with (2-[2-(2-Amino-ethoxy)-ethoxy]-acetyl)2-(gamma-Glu)
B6: Example 206 (peptide)
chain: B1 chain with X10F, X29A, S39E, S41E
modifications: Aib, Orn, αMeL, D-Ala; AEEA-γGlu-C18 diacid acyl; amide; synthetic construct; SITE 2: note = 2-Aminoisobutyric Acid; SITE 12: note = L-ornithine; SITE 13: note = alpha-methyl-leucine; SITE 17: note = Lysine is chemically modified through conjugation of the epsilon-amino group of the Lysine side chain with (2-[2-(2-Amino-ethoxy)-ethoxy]-acetyl)-(gamma-Glu)
B7: Example 190 (peptide)
chain: B1 chain with P31H
modifications: Aib, F(4CN), Orn, αMeL; lysine acylated C18 diacid; amide; synthetic construct; SITE 2: note = 2-Aminoisobutyric Acid; SITE 10: note = 4-cyano-L-phenylalanine; SITE 12: note = L-ornithine; SITE 13: note = alpha-methyl-leucine; SITE 17: note = Lysine is chemically modified through conjugation of the epsilon-amino group of the Lysine side chain with (2-[2-(2-
B8: Example 213 (peptide)
chain: B1 chain with X10F, X29A, S41T
modifications: non-natural residues, AEEA-γGlu-C18 diacid acylation; synthetic construct; SITE 2: note = 2-Aminoisobutyric Acid; SITE 12: note = L-ornithine; SITE 13: note = alpha-methyl-leucine; SITE 17: note = Lysine is chemically modified through conjugation of the epsilon-amino group of the Lysine side chain with (2-[2-(2-Amino-ethoxy)-ethoxy]-acetyl)-(gamma-Glu)
B9: Example 195 (peptide)
chain: B1 chain with X10F, A35E, S39E
modifications: Lys acylated (AEEA)2-γGlu-C18 diacid; non-natural residues; C-terminal amide; synthetic construct; SITE 2: note = 2-Aminoisobutyric Acid; SITE 12: note = L-ornithine; SITE 13: note = alpha-methyl-leucine; SITE 17: note = Lysine is chemically modified through conjugation of the epsilon-amino group of the Lysine side chain with (2-[2-(2-Amino-ethoxy)-ethoxy]-acetyl)2-(gamma-Glu)
B10: Example 180 (peptide)
chain: B1 chain with X10F, P31E, S41T
modifications: Aib, Orn, αMeL, acylated K, C-terminal amide; synthetic construct; SITE 2: note = 2-Aminoisobutyric Acid; SITE 12: note = L-ornithine; SITE 13: note = alpha-methyl-leucine; SITE 17: note = Lysine is chemically modified through conjugation of the epsilon-amino group of the Lysine side chain with (2-[2-(2-Amino-ethoxy)-ethoxy]-acetyl)2-(gamma-Glu)
B11: Example 207 (peptide)
chain: B1 chain with X10F, X29A, P31H, S41E
modifications: Aib, Orn, αMeL, D-Ala; lysine acylated C18 diacid; amide; synthetic construct; SITE 2: note = 2-Aminoisobutyric Acid; SITE 12: note = L-ornithine; SITE 13: note = alpha-methyl-leucine; SITE 17: note = Lysine is chemically modified through conjugation of the epsilon-amino group of the Lysine side chain with (2-[2-(2-Amino-ethoxy)-ethoxy]-acetyl)-(gamma-Glu)
B12: Example 197 (peptide)
chain: B1 chain with X10F, X29G, S39G, S41T
modifications: non-natural residues; lipidated Lys; synthetic construct; SITE 2: note = 2-Aminoisobutyric Acid; SITE 12: note = L-ornithine; SITE 13: note = alpha-methyl-leucine; SITE 17: note = Lysine is chemically modified through conjugation of the epsilon-amino group of the Lysine side chain with (2-[2-(2-Amino-ethoxy)-ethoxy]-acetyl)-(gamma-Glu)
B13: Example 191 (peptide)
chain: B1 chain
modifications: non-natural residues; lysine acylated AEEA-γGlu-C18 diacid; C-terminal amide; synthetic construct; SITE 2: note = 2-Aminoisobutyric Acid; SITE 10: note = 4-cyano-L-phenylalanine; SITE 12: note = L-ornithine; SITE 13: note = alpha-methyl-leucine; SITE 17: note = Lysine is chemically modified through conjugation of the epsilon-amino group of the Lysine side chain with (2-[2-(2-

Molecular target: T1, human GIP receptor (human)
Experiment: cell-based or functional assay

| Binder | Relative cAMP EC50, nM (0.1% casein) [nM] | cAMP Rel EC50, nM (1% HSA) [nM] | Relative cAMP EC50 [nM] |
| --- | --- | --- | --- |
| B1 | 0.34 |  |  |
| B2 | 0.0781 | 9.95 |  |
| B3 | 0.162 | 16.2 |  |
| B4 |  |  | 0.153 |
| B5 | 0.212 | 19.7 |  |
| B6 |  | 38.8 | 0.224 |
| B7 | 0.306 | 59.4 |  |
| B8 |  |  | 0.124 |
| B9 | 0.145 | 28.8 |  |
| B10 | 0.14 | 24 |  |
| B11 |  | 15.2 | 0.321 |
| B12 |  | 44.1 | 0.31 |
| B13 | 0.422 |  |  |

Molecular target: hGLP-1R (Homo sapiens, UniProt P43220)
Experiment: cell-based or functional assay

Chain of hGLP-1R (P43220 24-463): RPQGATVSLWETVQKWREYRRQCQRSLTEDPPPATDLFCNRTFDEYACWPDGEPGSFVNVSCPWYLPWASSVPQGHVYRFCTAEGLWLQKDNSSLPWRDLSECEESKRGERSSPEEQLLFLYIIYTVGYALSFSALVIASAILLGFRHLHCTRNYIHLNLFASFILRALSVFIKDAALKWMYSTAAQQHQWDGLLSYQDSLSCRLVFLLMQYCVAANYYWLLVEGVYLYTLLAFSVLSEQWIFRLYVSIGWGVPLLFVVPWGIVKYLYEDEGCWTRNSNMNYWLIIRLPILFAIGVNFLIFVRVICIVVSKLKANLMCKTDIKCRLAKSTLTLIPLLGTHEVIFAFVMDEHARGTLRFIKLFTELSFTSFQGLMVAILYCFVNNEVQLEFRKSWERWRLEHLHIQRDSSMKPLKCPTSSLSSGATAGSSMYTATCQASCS

| Binder | Relative cAMP EC50, nM (0.1% casein) [nM] | cAMP Rel EC50, nM (1% HSA) [nM] | Relative cAMP EC50 [nM] |
| --- | --- | --- | --- |
| B1 | 4.01 |  |  |
| B2 | 4.8 | 398 |  |
| B3 | 5.02 | 465 |  |
| B4 |  |  | 1.44 |
| B5 | 4.69 | 697 |  |
| B6 |  | 372 | 2.77 |
| B7 | 1.41 | 172 |  |
| B8 |  |  | 1.9 |
| B9 | 6.13 | 829 |  |
| B10 | 5.08 | 891 |  |
| B11 |  | 225 | 4.36 |
| B12 |  | 440 | 4.81 |
| B13 | 2.48 |  |  |

Molecular target: human glucagon receptor (human) (UniProt P47871)
Experiment: cell-based or functional assay

Chain of human glucagon receptor (human) (P47871 26-477): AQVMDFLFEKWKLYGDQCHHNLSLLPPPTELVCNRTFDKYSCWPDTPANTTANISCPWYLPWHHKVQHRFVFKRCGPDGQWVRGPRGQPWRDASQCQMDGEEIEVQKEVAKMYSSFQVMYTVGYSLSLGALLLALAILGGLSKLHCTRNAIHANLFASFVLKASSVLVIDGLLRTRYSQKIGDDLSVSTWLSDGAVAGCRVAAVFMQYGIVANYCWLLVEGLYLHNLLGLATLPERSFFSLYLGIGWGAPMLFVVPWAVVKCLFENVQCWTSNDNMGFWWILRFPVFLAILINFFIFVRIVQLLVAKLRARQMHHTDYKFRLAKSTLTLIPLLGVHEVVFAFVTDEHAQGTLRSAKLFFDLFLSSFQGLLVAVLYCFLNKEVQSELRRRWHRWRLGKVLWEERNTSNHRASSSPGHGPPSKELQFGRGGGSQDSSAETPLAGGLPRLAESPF

| Binder | Relative cAMP EC50, nM (0.1% casein) [nM] | cAMP Rel EC50, nM (1% HSA) [nM] | Relative cAMP EC50 [nM] |
| --- | --- | --- | --- |
| B1 | 7.29 |  |  |
| B2 | 5.33 | 1480 |  |
| B3 | 5.23 | 1050 |  |
| B4 |  |  | 2.81 |
| B5 | 4.32 | 813 |  |
| B6 |  | 545 | 2.2 |
| B7 | 2.95 | 331 |  |
| B8 |  |  | 3.61 |
| B9 | 3.1 | 605 |  |
| B10 | 2.44 | 1320 |  |
| B11 |  | 770 | 4.24 |
| B12 |  | 613 | 3.23 |
| B13 | 2.11 |  |  |
